Results reported in US5677146.

Assays:
[1] = biological target: T1, Cathepsin G, purified at Novo Nordisk A/S using the method of Baugh and Travis
T1 sequence (P08311 21-244, species assumed, looked up): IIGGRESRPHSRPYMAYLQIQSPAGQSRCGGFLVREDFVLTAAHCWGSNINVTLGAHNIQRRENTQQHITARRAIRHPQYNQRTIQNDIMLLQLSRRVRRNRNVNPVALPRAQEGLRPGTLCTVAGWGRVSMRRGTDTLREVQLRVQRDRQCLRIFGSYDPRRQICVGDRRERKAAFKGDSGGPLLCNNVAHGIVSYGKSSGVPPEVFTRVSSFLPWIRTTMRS

[2] = biological target: Chymotrypsin (2.5 nM), Novo Nordisk A/S
[3] = biological target: Leukocyte Elastase, purified at Novo Nordisk A/S using the method of Baugh and Travis
[4] = biological target: Plasmin (10 nM), Kabi
[5] = biological target: Trypsin (8 nM), Novo Nordisk A/S, Bagsvaerd, Denmark
[6] = biological target: Urokinase (5 nM), Serono, Freigung, Germany
[7] = biological target: glandular kallikrein (1 U/ml), Sigma, St Louis, MO
[8] = biological target: plasma kallikrein (3 nM), Kabi

B1: Kunitz-type inhibitor domain of the amyloid protein precursor (protein)
chain: EVCSEQAETGPCRAMISRWYFDVTEGKCAPFFYGGCGGNRNNFDTEEYCMAVCGSA
**Q.** With B1 as the binder, how does the % Inhibition [1] read?
**A.** 16%

**Q.** And the % Inhibition [2]?
**A.** 94%

**Q.** What about the % Inhibition [3] of the same binder?
**A.** 6%

**Q.** What about the % Inhibition [4] of the same binder?
**A.** 90%

**Q.** And the % Inhibition [5]?
**A.** 99.7%

**Q.** And the % Inhibition [6]?
**A.** 0%

**Q.** And the % Inhibition [7]?
**A.** 82%

**Q.** And the % Inhibition [8]?
**A.** 71%
